Experiments:
murine macrophage cells = assay: nitric oxide production by murine macrophage cells (Griess); type: cell-based, C57/BL6 mice
Text: Six-week old male C57/BL6 mice are killed by CO2 inhalation. The hip, femur, tibia and posterior appendage bones are removed. The bone marrow is extracted from the bone lumen by injecting Dulbecco's Modified Eagle Medium (DH medium) from the end portions which had been excised. The stem cells are washed and resuspended (approximate cell concentration 4000 cells/ml) in DH medium supplemented with 20% equine serum (SH) and 30% L929 cell supernatant. L929 is a murine fibroblast cell line the supernatant fluid of which is rich in growth factor for macrophage cells (M-CSF). The cell suspension is divided into Petri dishes which are incubated for 8 days in an incubator at 37° C. under 8% CO2 and a moisture saturated atmosphere.
After 8 days, the stem cells have differentiated into mature macrophage cells. The macrophage cells are scraped off by rapid cooling, washed and resuspended in DH medium supplemented with 5% foetal calf serum (FCS), amino acids and antibiotics. The cell density is adjusted to 700 000 cells/ml.
Products previously dissolved in DH medium supplemented with 5% FCS, amino acids and antibiotics are serially diluted directly in microtiter plates. The products are tested in triplicates and each microtiter plate comprises a negative control containing plain medium. The final volume in each well is 100 μl.
100 μl of cell suspension are added to diluted solutions of such products and the cells are incubated for 22 hours in an incubator at 37° C., under 8% CO2 and a moisture saturated atmosphere. At the end of the incubation period with the products, 100 μl of supernatant are withdrawn and the nitrite concentration is determined by running a Griess reaction.
100 μl of Griess reagent (5 mg/ml of sulfanilamide+0.5 mg/ml of N-(1-naphtylethylene diamine hydrochloride)) in 2.5% aq. phosphoric acid, are added to each well. The microtiter plates are read with a spectrophotometer at 562 nm wavelength against a reference sample at 690 nm. The nitrite concentration is proportional to nitric oxide content being formed. The nitrite content is determined based on a standard curve.
The results are given as mean value±standard deviation and plotted as a dose versus response curve.
From this dose versus response curve, 3 curve variables are computed:
Max: maximum curve amplitude and corresponding concentration
EC50: concentration corresponding to 50% of maximum amplitude
Min: lowest concentration inducing a significant proliferation corresponding to the blank±3× standard deviation value
Concentration values corresponding to EC50 and Min are determined from line segments joining different points on the curve.
If the curve has no plateau phase but an ascending configuration for the highest concentration being tested, a “>” sign is shown before “Max” and “EC50” values.

[1] = test system: human peripheral blood mononuclear cells; assay: α TNF production by human peripheral blood mononuclear cells; type: cell-based; conditions: 18 hours
Experimental: (§1) Mononuclear cells of peripheral blood are recovered from buffy coats of 6 healthy donors. Such buffy coat cells are resuspended and mononuclear cells are isolated by centrifugation on a Ficoll-Paque gradient (Amersham Pharmacia). Purified mononuclear cells are resuspended into RPMI-1640 medium supplemented with 10% FCS, antibiotics, mercaptoethanol and L-glutamine. Cell concentration is adjusted to 2×10^6 viable cells/ml
100 μl of each one of these solutions of acyl dipeptide-like compounds bearing an accessory functional side chain spacer, diluted 100-, 10- or 1-fold in RPMI medium 1640, are dispensed into a microtiter plate. Samples are tested in triplicates, and each microtiter plate includes a negative control made up of plain medium. Dilutions of E. coli LPS (ranging grom 1 to 0.00001 μg/ml) are used as a positive control.
100 μl of the cell suspension are added to each well containing product dilute solutions or control. Cells are incubated with the products for 18 hours in an incubator at 37° C., under 5% CO2 and a moisture saturated atmosphere.
At the end of the incubation period, microtiter plates are centrifuged, and the supernatant fluids are pooled and frozen at −80° C. as aliquots until time of ELISA assay.
Concentration of α TNF secreted by mononuclear cells is determined by chemiluminescent ELISA (QuantiGlo #QTAOO R&D kit). 4-fold supernatant fluid dilutions are dispensed into each well of the microtiter plate to which anti-αTNF antibodies are bound. The microtiter plate is incubated for 4 hours at room temperature. After washing, peroxidase-conjugated anti-human a TNF antibody is added. Following a 2 hour incubation period and thorough washing, a chemiluminescent substrate is added and chemilunescence is read after 20 minutes. α TNF content in the supernatant fluid is determined with respect to a standard curve covering the 7000 to 0.7 pg/ml range.
Results are expressed in pg/ml of α TNF produced. Results derive from an experiment representative of acyl-dipeptide-like compound activity

[2] = test system: human peripheral blood mononuclear cells; assay: inhibition of E. coli LPS-induced α TNF production in human peripheral blood mononuclear cells; type: cell-based; conditions: product 10 μg/ml
Experimental: as §1, with “cells/ml.” for “cells/ml”
Product mediated Inhibition is determined by preincubating those products with mononuclear cells, and adding, 1 hour later, serially diluted solutions of LPS capable of inducing α TFN production. […] E. coli LPS is serially diluted (10-fold dilution) to be in the range of 1 to 0.00001 μg/ml
50 μl of 10 μg/ml dilute product solutions in RPMI 1640 medium are dispensed into a microtiter plate. Each assay (10 μg/ml product concentration+dilute E. coli LPS) is run in triplicates and each microtiter plate includes a negative control comprised of plain medium. LPS-induced α TNF production (without inhibitor) is determined by adding E. coli LPS dilutions to RPMI medium.
100 μl of the cell suspension are added to each well containing dilutions of either product or control. Cells are incubated with the products for 1 hour in an incubator at 37° C., under 5% CO2 and a moisture saturated atmosphere.
At the end of the pre-incubation period, 50 μl of serially diluted solutions of E. coli LPS are added. Incubation of mononuclear cells with the product and LPS is extended for 18 hours. At the end of the cell activation period, the microtiter plates are centrifuged, and the supernatants are pooled and frozen at −80° C. as aliquots until time of ELISA assay.
Concentration of αTNF secreted by mononuclear cells is determined by chemiluminescent ELISA (QuantiGlo #QTAOO R&D kit). 4-fold dilutions of supernatant fluid are dispensed into each well of the microtiter plate to which anti-human αTNF antibodies are bound. The microtiter plate is incubated for 4 hours at room temperature. After washing, peroxidase-conjugated anti-human αTNF antibody is added. Following a 2 hour incubation period and a thorough washing, a chemiluminescent substrate is added and chemilunescence is read after 20 minutes. αTNF content in the supernatant fluid is determined with respect to a standard curve covering the 7000 to 0.7 pg/ml range.
Inhibition is characterized by the E. coli LPS concentration which elicits 50% production of α TNF during co-incubation in comparison to a control including only RPMI. This concentration increases as product inhibition activity becomes stronger. Knowing inhibition values of α TNF production, this concentration is given by calculating 100-(αTNF production induced by product and LPS)/(αTNF production induced by LPS alone)*100. From these inhibition data, concentration is determined by linear regression along the line segment which joins 2 LPS dilutions giving approx. 50% inhibition.
Product ability to inhibit α TNF production in mononuclear cells in response to LPS is further characterized by maximum inhibition. […] Results are calculated from a representative experience using all products.

Spleenic cells = assay: murine spleenic cell proliferation (3H-TdR take-up); type: cell-based, CBA mice; conditions: 5 μg/ml, one day of culture, positive control
Experimental: Cell proliferation response is assessed by measuring triturated thymidine (^3H-TdR) take-up after 1 or 2 days of culture. Values reported in the table stand for the arithmetic mean±standard deviation of 4 cultures.

[3] = test system: Limulus Amoebocyte Lysate
K562 cells = assay: activation of NK cell cytotoxicity against K562 target cells (LDH release); type: cell-based, human
Experimental: PBMC were recovered from buffy coats according to the procedure previously described in example 4.6. […] Cells were incubated under such conditions for 24 hours. K562 cells (human leukemia cell line, ATCC #CCL 243, 20110-2209 Manassas (Va.), U.S.A.) were maintained in culture using RPMI medium containing 10% FCS and subjected to 2 passages per week.
In order to make cytotoxicity measurement, PBMC and K562 cells were washed twice in HBSS and resuspended in Phenol Red-free RPMI medium containing 5% FCS. PBMC were divided into a round bottom 96-well plate so as to achieve a PBMC/target ratio of 20/1, 10/1 and 5/1 in 50 μl volume. 5000 K562 cells (target) were added in each well using 50 μl of Phenol Red-free RPMI. Final volume was 100 μl. The plate was centrifuged to promote contact then incubated at 37° C. for 4 hours.
Cytotoxicity was assayed using a non radioactive CytoTox 96 kit based on measuring LDH release during cell lysis (kit #G1780, batch #124100, Promega, Madison, Wis.) according to the supplier's instructions.
The percentage of cytotoxicity was calculated according to the following equation: […]

(3R,9R)-3-[(R)-3-dodecanoyloxytetradecanoylamino]-4oxo-5-aza-9-[(R)-3-hydroxytetradecanoylamino]-1,10-diol 1-dihydrogenphosphate 10-(6-aminohexanoate) [OM-197-MP-AC (R, R)]
Max concentration (murine macrophage cells; concentration at maximum amplitude): > 100 µg/mL | EC50 conc (murine macrophage cells; concentration corresponding to 50% of maximum amplitude): > 15.32 µg/mL | Min concentration (murine macrophage cells; lowest concentration inducing a significant response): 3.35 µg/mL | α TNF produced ([1]; product 1 μg/ml): 0 pg/mL | α TNF produced ([1]; product 10 μg/ml): 88 pg/mL | α TNF produced ([1]; product 100 μg/ml): 84 pg/mL | max. Inhibition [2]: 100% | 50% inhibition LPS ([2]; LPS concentration at which α TNF production is 50% of control): 0.68 µg/mL | max. Inhibition LPS ([2]; LPS concentration corresponding to maximum inhibition): 0.0013 µg/mL

Concanavalin A [reference compound]
thymidine take-up (Spleenic cells): 37.5±6.2 ×10^3 cpm

B1: Ovalbumin: antigen alone (ovalbumin, Fluka AG) (protein, UniProt P01012 2-386, looked up)
Ovalbumin: GSIGAASMEFCFDVFKELKVHHANENIFYCPIAIMSALAMVYLGAKDSTRTQINKVVRFDKLPGFGDSIEAQCGTSVNVHSSLRDILNQITKPNDVYSFSLASRLYAEERYPILPEYLQCVKELYRGGLEPINFQTAADQARELINSWVESQTNGIIRNVLQPSSVDSQTAMVLVNAIVFKGLWEKAFKDEDTQAMPFRVTEQESKPVQMMYQIGLFRVASMASEKMKILELPFASGTMSMLVLLPDEVSGLEQLESIINFEKLTEWTSSNVMEERKIKVYLPRMKMEEKYNLTSVLMAMGITDVFSSSANLSGISSAESLKISQAVHAAHAEINEAGREVVGSAEAGVDAASVSEEFRADHPFLFCIKHIATNAVLFFGRCVSP
LAL EU/mg [3]: <0.8 EU/mg | LAL ng of LPS equivalent per mg of product [3]: <0.064 ng of LPS equivalent per mg of product

B2: OM-197-FV-ovalbumin: OM-197-FV7 coupled to ovalbumin by reductive amination (conjugate, UniProt P01012 2-386, looked up)
Ovalbumin: GSIGAASMEFCFDVFKELKVHHANENIFYCPIAIMSALAMVYLGAKDSTRTQINKVVRFDKLPGFGDSIEAQCGTSVNVHSSLRDILNQITKPNDVYSFSLASRLYAEERYPILPEYLQCVKELYRGGLEPINFQTAADQARELINSWVESQTNGIIRNVLQPSSVDSQTAMVLVNAIVFKGLWEKAFKDEDTQAMPFRVTEQESKPVQMMYQIGLFRVASMASEKMKILELPFASGTMSMLVLLPDEVSGLEQLESIINFEKLTEWTSSNVMEERKIKVYLPRMKMEEKYNLTSVLMAMGITDVFSSSANLSGISSAESLKISQAVHAAHAEINEAGREVVGSAEAGVDAASVSEEFRADHPFLFCIKHIATNAVLFFGRCVSP
modifications: OM-197-FV coupled by reductive amination
LAL EU/mg [3]: 99 EU/mg | LAL ng of LPS equivalent per mg of product [3]: 8.21 ng of LPS equivalent per mg of product

B3: IFN-γ: γ IFN (1000 U/ml) stimulus (protein, UniProt P01579 24-161, looked up)
Interferon gamma: QDPYVKEAENLKKYFNAGHSDVADNGTLFLGILKNWKEESDRKIMQSQIVSFYFKLFKNFKDDQSIQKSVETIKEDMNVKFFNSNKKKRDDFEKLTNYSVTDLNVQRKAIHELIQVMAELSPAAKTGKRKRSQMLFRG
% cytotoxicity (K562 cells; Ratio PBMC:K562 5.1): 17.9% | Optical density at 490 nm, K562 + PBMC (K562 cells; Ratio PBMC:K562 5.1): 1.68 | Optical density at 490 nm, PBMC alone (K562 cells; Ratio PBMC:K562 5.1): 0.035 | % cytotoxicity (K562 cells; Ratio PBMC:K562 10.1): 29.4% | Optical density at 490 nm, K562 + PBMC (K562 cells; Ratio PBMC:K562 10.1): 1.9 | Optical density at 490 nm, PBMC alone (K562 cells; Ratio PBMC:K562 10.1): 0.064 | % cytotoxicity (K562 cells; Ratio PBMC:K562 20.1): 39.3% | Optical density at 490 nm, K562 + PBMC (K562 cells; Ratio PBMC:K562 20.1): 2.1 | Optical density at 490 nm, PBMC alone (K562 cells; Ratio PBMC:K562 20.1, stimulus 24 hours): 0.101

Reference: patent US8173133B2, “Acyl pseudodipeptides which carry a functionalized auxiliary arm” (OM Pharma, priority 1999, dated 2012)
